Measurements: patent US9931401B2, “Combination comprising anti-fibroblast growth factor receptor 2 (FGFR2) antibody and a tyrosine kinase inhibitor” (Daiichi Sankyo Company, Limited, priority 2013, dated 2018)
Substitutions are numbered along the chain they refer to. Entries after “also recorded” stand apart in the source; their conditions may differ.

B1: FR2-10: anti-human FGFR2 rat monoclonal antibody obtained by the method described in Example 1; VH SEQ ID NO: 12, VL SEQ ID NO: 21 (antibody, listed as Rattus norvegicus, V domains shown)
VH: EVQLVESGGGLVQPGRSLKLSCVASGFRFNDFWMTWIRQAPGKGLEWVASITYTGDNTYYAGSVKGRITISRDNAKSTLYLQMNSLRSEDTATYYCTRDDYGGYSPYYMDAWGQGTSVTVSS
VL: DIQMTQSPSSLSAFLGDRVTITCRASQDIGNYLRWFQQKPGKSPRLMIYGATNLANGVPSRFSGSRSGSDYSLTINNLESEDMAIYYCLKHNEYPFTFGSGTKLEIKRA
B2: FR2-13: anti-human FGFR2 rat monoclonal antibody obtained by the method described in Example 1; VH SEQ ID NO: 14, VL SEQ ID NO: 24 (antibody, listed as Rattus norvegicus, V domains shown)
VH: QVKLLQSGAELVKPGASVKLSCKTSGFTFSTSYMSWLKQVPGPSIEWIGWIYAGDGGTKYNQKFKGKATLTVDKSSSTAYMDLSSLTSEDAAVYFCATDGYGDWFAYWGQGTLVTVSS
VL: DIQMTQSPASLSASLGETVTIECRASEDIYSNLAWYQQKPGNSPQLLIYDANILADGVPSRFSGSGSGTQYSLKINSLQSEDVASYFCQQYNNYPPFTFGVGTKLELKRA
B3: FR2-14: anti-human FGFR2 rat monoclonal antibody obtained by the method described in Example 1; VH SEQ ID NO: 16, VL SEQ ID NO: 26 (antibody, listed as Rattus norvegicus, V domains shown)
VH: B2 VH with I45T, S75F, A106T
VL: B2 VL with V101A

Columns and labels:
[1] = tested on: FGFR2, FRS2, and ERK phosphorylation in stomach cancer cell line SNU-16; experiment: FGFR2 signal inhibitory effect on SNU-16 by Western blotting; assay type: cell-based, human; settings: FGF7 10 ng/ml, 10 minutes
Method: The FGFR2 signal inhibitory effect of the obtained antibody was tested using a stomach cancer cell line SNU-16 endogenously expressing FGFR2. SNU-16 cells (3×10^6) suspended in an RPMI medium containing 0.1% bovine serum albumin were seeded onto a 12-well plate and incubated overnight. The rat FR2-10 antibody was added thereto, and the cells were incubated at 37° C. for 1 hour. Then, 10 ng/ml FGF7 (manufactured by R&D systems, Inc.) was added thereto, and the cells were further incubated for 10 minutes. Subsequently, the cells were lysed with an RIPA buffer (1% NP-40, 0.5% sodium deoxycholate, and 0.1% SDS in PBS) containing Complete Mini (manufactured by Roche Applied Science) and a phosphatase inhibitor (manufactured by Nacalai Tesque Inc.). The lysates were centrifuged to obtain the cell lysis solution, and the protein concentration was determined using BCA protein assay (manufactured by Pierce Biotechnology, Inc.). The lysates were resuspended in a DTT-containing buffer and denatured at 99° C. for 5 minutes. The protein (20 μg/lane) was separated by SDS-PAGE on a 5 to 20% gel. The protein was blotted onto a PVDF membrane (manufactured by Bio-Rad Laboratories, Inc.). The membrane was blocked with TBS-T (2 mM Tris, 50 mM NaCl, and 0.1% Tween-20 (pH 7.4)) containing 5% skimmed milk (MEGMILK SNOW BRAND Co., Ltd.) at room temperature for 1 hour. […]

human FGFR2 IIIc = molecular target: T1, human FGFR2 IIIc (Homo sapiens, UniProt P21802); experiment: Elk1 luciferase reporter gene assay, FGFR2 IIIc-expressing 293α cells, ligand FGF9; assay type: cell-based; settings: antibody preincubated 1 hour; FGF9 10 ng/ml, 6 hours
T1 construct: a human FGFR2 IIIc variant protein (isoform 1: NP_000132); expressed in transfected cells; host or cells: 293α cells (HEK293 stably transfected with integrin αv and β3)
T1 sequence (P21802 22-821): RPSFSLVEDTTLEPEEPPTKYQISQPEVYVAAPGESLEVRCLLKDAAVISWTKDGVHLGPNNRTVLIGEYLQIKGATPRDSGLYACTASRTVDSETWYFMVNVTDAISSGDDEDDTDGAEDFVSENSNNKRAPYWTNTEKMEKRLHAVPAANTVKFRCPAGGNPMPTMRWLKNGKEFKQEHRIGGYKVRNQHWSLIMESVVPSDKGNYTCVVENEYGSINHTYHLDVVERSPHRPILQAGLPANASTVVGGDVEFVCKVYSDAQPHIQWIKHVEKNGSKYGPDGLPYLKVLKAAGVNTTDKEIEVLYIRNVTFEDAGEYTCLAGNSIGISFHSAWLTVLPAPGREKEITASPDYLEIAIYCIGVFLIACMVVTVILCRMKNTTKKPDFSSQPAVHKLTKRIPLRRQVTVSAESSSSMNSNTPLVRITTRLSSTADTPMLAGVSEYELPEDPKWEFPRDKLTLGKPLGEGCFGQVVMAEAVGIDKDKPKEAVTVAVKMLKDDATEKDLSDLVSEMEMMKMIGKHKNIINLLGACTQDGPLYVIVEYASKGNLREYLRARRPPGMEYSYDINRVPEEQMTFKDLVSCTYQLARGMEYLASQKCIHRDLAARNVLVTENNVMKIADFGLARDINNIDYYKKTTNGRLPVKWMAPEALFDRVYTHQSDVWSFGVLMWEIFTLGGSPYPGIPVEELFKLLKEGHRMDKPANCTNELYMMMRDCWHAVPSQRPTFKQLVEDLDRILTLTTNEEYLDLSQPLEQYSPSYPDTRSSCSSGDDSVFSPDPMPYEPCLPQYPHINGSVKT
Method: The Elk1 luciferase reporter gene assay was carried out using each hybridoma culture supernatant selected in Example 1)-5. A cell line 293α, which was HEK293 cells stably transfected with integrin αv and integrin β3 expression vectors, was transiently cotransfected with pcDNA-DEST40-FGFR2 IIIb or pcDNA-DEST40, pFA2-Elk1 (manufactured by Stratagene Corp.), pFR-Luc2CP, and pGL4.74[hRluc/TK] (manufactured by Promega Corp.) according to transfection procedures using Lipofectamine 2000 (manufactured by Invitrogen Corp.), inoculated to a white 96-well cell culture plate (manufactured by Corning Inc.), and cultured overnight at 37° C. under 5% CO2 conditions. On the next day, the culture supernatant was removed, and the hybridoma culture supernatant diluted 5-fold with DMEM containing 5% FBS was added at a concentration of 50 μl/well to the plate. […] The firefly/Renilla ratio was calculated to normalize data on each well.
In order to evaluate the signal-neutralizing effects of the obtained antibodies by the Elk1 luciferase reporter gene assay, 293α cells were cotransfected with pcDNA-DEST40-FGFR2 IIIb or pcDNA-DEST40-FGFR2 IIIc constructed in Example 1)-3-1, pFA2-Elk1 (manufactured by Stratagene Corp.), pFR-Luc2CP, and pGL4.74[hRluc/TK] […] The firefly/Renilla ratio was calculated to normalize data on each well. […]

Molecule | phosphorylation of FGFR2, FRS2, and ERK induced by FGF7 [1] | ligand FGF9 dependent reporter activation in the FGFR2 IIIc-expressing cells (human FGFR2 IIIc)
B1 | inhibited FGFR2, FRS2, and ERK phosphorylation; also recorded: inhibited the increase in the phosphorylation of these molecules in a concentration dependent manner | 
B2 |  | inhibited
B3 |  | inhibited
